The values below come from patent US20230330253A1 (LANOVA MEDICINES, published 2023).

B1: 103A10B2 chimeric antibody (antibody, V domains shown)
VH: QVQLKESGPGLVAPSQSLSITCTVSGLSLTSFGVHWIRQPPGKGLEWLGVIWAGGSTNYNSALMSRLSISKDNSKSQVYLKMHSLQTDDTAMYYCARSLYGNSFDYWGQGTALTVSS
VL: DIVMTQSPSSLTVTPGEKVTMSCRSSMSLFNSGNQKSYLSWYHQKPGQPPKLLIYWASTRDSGVPVRFTGSGSGTDFTLTISSVQAEDLAVYYCHNDYIYPLTFGAGTKLELK
B2: 119G11D9 chimeric antibody (antibody, V domains shown)
VH: EVQLQQSGPELVKPGASVKMSCKASGYTFTGFLMHWVKQKPGQGLEWIGYINPYNDGTKYSEKFKGKATLTSDKSSSTAFMELSSLTSDDSAVYYCARLDYGNAMDYWGQGTSVTVSS
VL: DIVMTQSPSSLTVTAGERVTMRCRSTQSLFNSGNQKNYLTWYQQKPGQPPKLLIYWASTRESGVPDRFTGGGSGTDFTLTISSVQAEDLAVYYCQNAYYYPLTFGAGTKLERK
B3: 56E8F10F4 chimeric antibody (antibody, V domains shown)
VH: DVQLVESGGGLVQPGGSRKLSCTASGFTFNSFGMNWVRQAPEKGLEWVAFISGGSNTIHYLDTVKGRFTISRDNPKNTLFLQMTSLRSEDTAMYYCTRLALGNAMDYWGQGTSVIVSS
VL: DIVMTQSPSSLTVTAGEKVTMSCKSSQSLLNSGNQKNYLTWYQQKPGQPPKLLIYWASTRESGVPDRFTGSGSGTYFTLTISSVQAADLAVYYCQNDYYFPFTFGSGTKLEIK
B4: 15C2B7 chimeric antibody (antibody, V domains shown)
VH: QIQLVQSGPELRKPGETVKISCKASGYTFTNYGMNWVKQAPGKGLKWMAWINANTGEPTYAEEFKGRFAFSLETSARSAYLQINSLKNEDTATYFCARLTRGNSFDYWGQGTTLTVSS
VL: B3 VL with E17G, M21V, Y76D, A86T, A87E, D97N, F102L, S106A, I112L
B5: 58G2C2 chimeric antibody (antibody, V domains shown)
VH: QVHLQQSGAEVVRPGTSVKVSCKASGYAFTNYLIEWIKKRPGQGLEWVGVINPGRSGTNYNEKFKGKATLTADKSSSTAYMQLSSLTSDDSAVYFCARTRYGGNAMDYWGQGTSVTVSS
VL: B3 VL with K51T, Y55F, S58F, Y76D, S82N, A87E, D97S, Y99S, F100Y
B6: 10G7G11 chimeric antibody (antibody, V domains shown)
VH: QVQLKESGPGLVAPSQSLSITCTISGFSLNTYGVHWVRQPPGKGLEWLVVMLSDGNTVYNSSLKSRLSLTKDNSKSQLLLKMNSLQTDDTAIYYCARHKAYGNAMDYWGQGTSVTVSS
VL: B3 VL with S22T, L30F, K36R, Q44R, I81V, A87E, D97A, I112K
B7: 101C4F12 chimeric antibody (antibody, V domains shown)
VH: QVQLKESGPGQVAPSQSLSIACTVSGFSLSSYGVHWVRQPPGKGLEWLGVIWAGGSTNYDSALMSRLTISKDNSRTRVFLKMNSLQTDDTAIYYCARSLYGNSLDSWGPGTTLTVSS
VL: DIVMTQSPSSLTVTAGEKVTMSCKSSQSLLNSGNQRNYLTWYQQKPGQPPRLLIYWSSTRDSGVPDRFTGSGSRTDFTLTISSVQAEDLAVYYCQNNFIYPLTFGAGTKLELK
B8: 44F6B11 chimeric antibody (antibody, V domains shown)
VH: EVQLVESGGDLVKPGGSLKLSCAASGFTFSNYGMSWVRQTPDKRLEWVATFSYGDSHNYYSDSVKGRFTISRDIAKDALYLQMSSLRSEDTAIYYCARFGRGNTMDYWGQGTSVTVSL
VL: DIVMTQSPSSLTVTAGEKVIMSCKSNQSLLNSGNQKKYLTWYQQKPGQSPKLLIYWASTRESGVPDRFTGSESGTDFTLTISSVRAEDLAVYYCQNGYSYPFTFGSGTKLEMK
B9: 84E9E12 chimeric antibody (antibody, V domains shown)
VH: DVQLQESGPGLVKPSQSLSLSCSVTGYSITSGYFWTWFRQFPGNKLEWMGYISYDGSNNYNPSLKNRISITRDTSKNQFFLKLNSVTTEDTATYYCASFRFFAYWGQGTLVTVSA
VL: DIVMTQSPSSLTVTTGEKVTMSCKSSQSVFNSGNQKNYLTWYQQKPGQPPKLLVYWASTRESGVPARFTGSGSGTVFTLTISSVQAEDLAVYYCQNDYYFPLTFGAGTRLELK
B10: 103F4D4 chimeric antibody (antibody, V domains shown)
VH: QVQLQQSGAELARPGASVKMSCKASGYTFPTYSIHWLKQGPGQGLEWIGYINPSTIYTNYNQKFKYKATLTADKSSSTAYIQLSSLTSDDSAVYYCAREGYGRGNAMDYWGQGTSVTVSS
VL: DIVMTQSPSSQTVTAGEKVTLSCRSSQSLLNGGNQKNYLTWYQQKPGQPPKLLIYWASTRESGVPDRFTGSGSGTYFTFTISSVQAEDLAVYYCQNAYFYPFTFGAGTKLELK
B11: 65G8B8 chimeric antibody (antibody, V domains shown)
VH: QVQLKESGPGLVAPSQSLSITCTVSGFSLTSYGVSWVRQPPGKGLEWLGVIWGDGNTIYHSALKSRLSISRDNSKRQVFLKVNSLQIDDTATYYCAKQGLYGHAMDYWGQGTSVIVSS
VL: DIMMTQSPSSLTVTTGEKVTLTCKSSQSLLNSGNLKNYLTWYQQKPGHPPKLLIYWASTRESGVPVRFTGSGSGTDFTLTISSVQAEDLTVYYCQNVYIYPFTFGSGTKLEMR
B12: 20F1E10 chimeric antibody (antibody, V domains shown)
VH: QIQLVQSGPELKKPGETVKISCKASGYTFTKYGMNWVRQAPGKGLKWMGWISTNTGEPTYAEEFKGRFAFSLETSASTAFLQINNLKNEDTATYFCARLVRGNSFDFWGQGITLTVSS
VL: DIVMTQSPSSLTVTAGEKVTMSCKSSQSLFNSGNQRNYLTWYQQKPGQPPKLLIYWASTRESGVPDRFTGSGSGTDFILTITKVQAEDLAVYYCQNVYSYPLTFGAGTKLELK
B13: 110C12B6 chimeric antibody (antibody, V domains shown)
VH: B2 VH with A24S, F80Y, A97G
VL: B2 VL with R18K, K36R, G71S, A106V
B14: 116A8B7 chimeric antibody (antibody, V domains shown)
VH: B2 VH with A24S, F80Y, A97G
VL: B2 VL with R18K, K36R, G71S, A106V
B15: 78C10B6G4 chimeric antibody (antibody, V domains shown)
VH: QVQLKESGPGLVAPSQSLSITCTVSGFSLINYGVSWVRQPPGKGLEWLGVIRGDGNTNYQSALRSRLSIRKDTSKSQVFLKLNSVHTDGTATYYCAKVGRGNAMDHWGQGISVIVSS
VL: DIVMTQSPSSLTVTAGEKVTMSCKSSQSLLNSGNQKNYLTWYQQRPGQPPKLLIYRASSRESGVPVRFTGSGSGTDFTLTISSVQAEDLAVYYCQNDYIYPYTFGGGTKLEMN
B16: 113G12E5E6 chimeric antibody (antibody, V domains shown)
VH: QVQLKQSGPGLVQPSQSLSITCTVSDFSLTKYGVHWFRQSPGKGLEWLGVIWTGGNTDYNPALIPRLSFRKDNSKSQVFFKMNSLQSSDTAVYYCARNGYYGNAMDYWGQGTSVTVSS
VL: DIVMTQSPSSLTVTAGERVTMSCKPSQSLLNSGNQKNYLAWYQQKPGQPPKLLLYWASTRESGVPDRFKGSGSGTDFTLTISSVQAEDLAVYYCQNAYFYPCTFGGGTKLEMK
B17: 105F7G12 chimeric antibody (antibody, V domains shown)
VH: B16 VH
VL: B16 VL with P25S

Changes are numbered by the printed parent chain.

In the assay the target is human claudin 18.2 (CLDN18.2) (human). Nature of the assay: cell-based or functional assay.
In the case of B1, the “Fluorescence, pHAb internalization on MKN45-CLDN18.2 cells, 20 nM antibody, normalized by DAR” value (“Fluorescence … 20 nM antibody, normalized by DAR” below) is 12000 and the “Fluorescence, pHAb internalization on MKN45-CLDN18.2 cells, 100 nM antibody, normalized by DAR” value came out at 31300.

Take B2: the “Fluorescence … 20 nM antibody, normalized by DAR” value stood at 21400 and the “Fluorescence, pHAb internalization on MKN45-CLDN18.2 cells, 100 nM antibody, normalized by DAR” value was found to be 34000.

B3: the “Fluorescence … 20 nM antibody, normalized by DAR” value is 19900 and the “Fluorescence, pHAb internalization on MKN45-CLDN18.2 cells, 100 nM antibody, normalized by DAR” value amounted to 28700.

As to B4, the “Fluorescence … 20 nM antibody, normalized by DAR” value was 19400 and the “Fluorescence, pHAb internalization on MKN45-CLDN18.2 cells, 100 nM antibody, normalized by DAR” value stood at 33200.

Consider B5, for which the “Fluorescence … 20 nM antibody, normalized by DAR” value amounted to 18600 and the “Fluorescence, pHAb internalization on MKN45-CLDN18.2 cells, 100 nM antibody, normalized by DAR” value stood at 33100.

With B6, the “Fluorescence … 20 nM antibody, normalized by DAR” value was found to be 9600 and the “Fluorescence, pHAb internalization on MKN45-CLDN18.2 cells, 100 nM antibody, normalized by DAR” value is 35500.

In the case of B7, the “Fluorescence … 20 nM antibody, normalized by DAR” value stood at 15200 and the “Fluorescence, pHAb internalization on MKN45-CLDN18.2 cells, 100 nM antibody, normalized by DAR” value was 44400.

Regarding B8, the “Fluorescence … 20 nM antibody, normalized by DAR” value worked out at 18400 and the “Fluorescence, pHAb internalization on MKN45-CLDN18.2 cells, 100 nM antibody, normalized by DAR” value came out at 26100.

Turning to B9, the “Fluorescence … 20 nM antibody, normalized by DAR” value was 18700 and the “Fluorescence, pHAb internalization on MKN45-CLDN18.2 cells, 100 nM antibody, normalized by DAR” value turned out to be 35100.

B10: the “Fluorescence … 20 nM antibody, normalized by DAR” value is 31200 and the “Fluorescence, pHAb internalization on MKN45-CLDN18.2 cells, 100 nM antibody, normalized by DAR” value is 49100.

Turning to B11, the “Fluorescence … 20 nM antibody, normalized by DAR” value came to 15100 and the “Fluorescence, pHAb internalization on MKN45-CLDN18.2 cells, 100 nM antibody, normalized by DAR” value is 20500.

Turning to B12, the “Fluorescence … 20 nM antibody, normalized by DAR” value came to 21100 and the “Fluorescence, pHAb internalization on MKN45-CLDN18.2 cells, 100 nM antibody, normalized by DAR” value was 45100.

With B13, the “Fluorescence … 20 nM antibody, normalized by DAR” value stood at 19300 and the “Fluorescence, pHAb internalization on MKN45-CLDN18.2 cells, 100 nM antibody, normalized by DAR” value amounted to 40100.

Take B14: the “Fluorescence … 20 nM antibody, normalized by DAR” value is 21400 and the “Fluorescence, pHAb internalization on MKN45-CLDN18.2 cells, 100 nM antibody, normalized by DAR” value was found to be 41700.

As for B15, the “Fluorescence … 20 nM antibody, normalized by DAR” value stood at 16200 and the “Fluorescence, pHAb internalization on MKN45-CLDN18.2 cells, 100 nM antibody, normalized by DAR” value stood at 29100.

Consider B16, for which the “Fluorescence … 20 nM antibody, normalized by DAR” value turned out to be 11000 and the “Fluorescence, pHAb internalization on MKN45-CLDN18.2 cells, 100 nM antibody, normalized by DAR” value amounted to 28900.

On to B17, for which the “Fluorescence … 20 nM antibody, normalized by DAR” value worked out at 14800 and the “Fluorescence, pHAb internalization on MKN45-CLDN18.2 cells, 100 nM antibody, normalized by DAR” value amounted to 43100.
